Assay: soluble on expression in E. coli; label from the status in PepcDB or PDB records

Row | Sequence | soluble on expression in E. coli
1 | MGSDKIHHHHHHMTLRLHEYVEKESFNHPYTFVAAQTGLDEKTVRDIFNARAEFLGRWHRFETPRILGIDELYLNKRYRCILTNIEERTLLDLLATRRQNVVTNYLMKLKDRQKVEIVSMDMWNPYRAAVKAVPPQARIVVDKFHVVRMANDALERVRKGLRKELKPSQSRTLKGDRKILLKRAHEVSDRERLIMETWTGAFPQLLAAYEHKERFYGIWDATTRLQAEAALDEWIATIPKGQKEVWSDLVRAVGNWREETMTYFETDMPVTNAYTESINRLAKDKNREGRGYSFEVMRARMLYTTKHKKKAPTAKVSPFYKKTIGYGLPDFAEELNYGVDLSTI | not soluble
2 | EMDRRAALSGAAGAFMAACDEAVRELLLAMNFSDHDAEAIITGAAPPQLEHAASGVVSLVLRLKSSVLSHYIKHLNNAAARSQAAAASTAAVDGNAEDAADKHGAKATSAAKAPPAAGGGAGDAADQQLSTGEACLVQLQLYGGVGDALLQLLRSKLRGSACQLWALAHIVHPHPSRSEKESLAAYTGKSTKQVTDWFTNWRARHWRPAIMALQKGAAGGAAGGSLG | soluble
3 | MGSDKIHHHHHHMDYELLKTFICLAKLKNFTKTAEQLHVVQSTITSRIKHLEHTIGETLFIRTNKKVLLTGAGEIFLPYAKQLLSIQETAISRLHTLELFKDTLNIGAVHSIYDCHVQNMILKYMQRNKKIAIKITIEHSEELIQMLHDNQLDVTFTYLDIKSSQFICNPFYTDKIILVTGSQNNYNERGITNDELRSLPLLSSAILTEEFQEWFYSIFPRNYIYPLDININSNIVTFLKDGIGFSFMPESAAKNFIEEGSLIEVKLLESTPPSMKSYVLLNKQRINSEAVHSWLNEFPTLTST | not soluble
4 | MQVSGSSGNRIWDANLSQNLTYTWTPQTYSGFYYDLDTGEGSENMTIQLTEGSRSVQRNGLQYETRPIETNFEYGNWGSYQVIGFMAERYFAGYTENSNFVNDDISVISDGQLSKILIDSDDRKSLYTGSSLILEEGYSLNIVEVDVNGNTVWVQLEKDGDVIDNGFLSSNSNYVYETDLGDADDVPLIAVHLAQIFRGTETNAIFVEGIFQISDEYVQIENGDRFGKMEISSTSSSGIIMRNRDSFTLGRGDTVDIMGKLSFVVADSSELRFAPIVEISEPGTYELRLEHHHHHH | not soluble
5 | MSLPMSLTIKLFLMFLLIESSIAKQKPDLDHVNVDMSEIDYSSFFKQMIEGWEREANEKYPFRPDLNNDDSSYFLQSRDQVYVNRSFFVQGKAQAYIRQWNNWKPYRDLGNKIGVLWPTQDNDCPKIEAMNPLTYMIHGLSRRYNILPLLK | soluble
6 | MSLAATIREVAALAGVAPGTVSNVLTGKKLVAEPLRKAVLDAIAQLDYRPNHLASSLRFGRTKSIGIVVPDMTNPFFSGLVRELELKAAKSGFQILLMSSYEEAAEERERIRALVSRQVDGLIISPSRDSIETSPHSAISGIPTVLVDRAFAVEGFDTVSADNEQATLMGARHLIELGHKRITFLATAPGLANMEERVSGYRKAMQDAGVSDANVVYGGLSIESCRSAIEQELRRAGRPTAVFASAYVATLGAAKAIRALDLAFPQDVSLLGFDDSDWMTVLRPYVSTIEQPLDELGHACWELLQRRMKKMDVPPVHRRIACTLRARESTREGHHHHHH | soluble
7 | MKKVLIANRGEIAVRIIRACRDLGIQTVAIYSEGDKDALHTQIADEAYCVGPTLSKDSYLNIPNILSIATSTGCDGVHPGYGFLAENADFAELCEACQLKFIGPSYQSIQKMGIKDVAKAEMIKANVPVVPGSDGLMKDVSEAKKIAKKIGYPVIIKATAGGGGKGIRVARDEKELETGFRMTEQEAQTAFGNGGLYMEKFIENFRHIEIQIVGDSYGNVIHLGERDCTIQRRMQKLVEEAPSPILDDETRREMGNAAVRAAKAVNYENAGTIEFIYDLNDNKFYFMEMNTRIQVEHPVTEMVTGIDLVKLQLQVAMGDVLPYKQEDIKLTGHAIEFRINAENPYKNFMPSPGKIEQYLAPGGYGVRIESACYTNYTIPPYYDSMVAKLIIHEPTRDEAIMAGIRALSEFVVLGIDTTIPFHIKLLNNDIFRSGKFNTNFLEQNSIMNDEG | soluble
8 | MQAKVHVKKGDTVLVASGKYKGRVGKVKAVLPRKMAVIVEGVNLVKKAVRPSPKHPQGGFVEQEAPLHASKVRPICPACGKPTRVRKKFLEDGRKIRACAKCGGSLDVEELEHHHHHH | not soluble
9 | MANLGMTGVADGNNSEQTYLGQINYQDQTITKASAKKLNREIDLQRASQLTLWAMPMVGMYQSYNSTIALFDLQEGDAPIIGLHEGYDGVYPFLTANVTTPYTISLVDLSETGPYVVNIPAGSIFGVANNAWQEPIKEIGSGNKETLLFVGPGQEYPKDFDGEVIQSDTNQILYFYRVLGVGAEAEKLKTAVTAYKLSDVANPPQVKFVIYKPKASDADVTIATQPRGMAYWEVVNQYIQNEPMADRDRFFYAWLKDLGIEKGKAFNPTPYQKEILLEGVNTGMAMAQSLAFNKTKKKFSSSLYGSDSGWEGVLAGMDPKIDLDTYSMINERTAYTYEAVTTSAGMIVENPGHGSAYIGSYYDADGNALMGGKNYTLHIEPNPPAANFWSITVYDIKNRLIIRNEIKRSDLSSRSESLVMNSDGSVDLYFGPEAPEGKEGNWIQSNDGESYFMYLRLYGPEQEYFDQTYPMNKIDKTKLEHHHHHH | not soluble
10 | MKILLEVKYMTKFQVAYVPVGVPTFHLESAQKEFEKSIDLLNTITDAAIVPDKMLLSIQDLTNFLDTIEPSLIILQNITFANAAYASEVLKRFSCPVLLWTLREPVIDGGRLRLNSLTGAYSAGNALAAFRDGNFEYIFGAPQEERTKKTISACIRAAWLKNELKNLRIASVGHTPQGFGFGRAMDADMQKVFGATLESIEVRELIDMAKGYTDDECSEYLDKMTKCTVGLDKTPDNNRKDFARLCKAYKEYVDENNIGALSSRCWPDFFTAFGTPVCGVLAMLNDMGVAASCEADTYGALSMYMGMKLSEQAVFFGDPVSLDESENTITFWHCGTAACSIAREDTGATIGVHPNRKIGPVMDFGCKAADKVTVFRVGQKADGSFRFFVTTGSALDKPKQFCGTSIVVRTDKNSYDIVNQSVKDGWEPHFVVIYGDCSDELKVLGHMLEIEVCEY | not soluble
11 | MGSDKIHHHHHHMANVKWTMKAREFVNCNCAYGCPCQFNAMPTHGFCQAVTGIEIESGHHGATKLDGLRLVGIFRWPGAIHQGGGEAAVVVDERASEAQREALLRILGGQDTKPGATIFEVFSTTLEKFHDPIFAPIEFEVDVDARTGRLHVEGVADGHGEPIKNPVTGAEHRARIDLPHGFEYAMAEIGRGWTKATGPIKFEVADTHSHFANLHLTQSGVVH | not soluble
12 | TIKRMECFDISHTMGSQTVASCVVFDENGPLKSDYRRFNIEGITGGDDYAGMEQALVKRYDKPLPIEKIPDIIFIDGGKGQLNRALQVFEKLTVAWDKHKPLLIGVAKGAERKAGLETLIIGRLKKEIHLPIDSPALHLIQHIRDESHHHAISGHRKKRQKA | not soluble
13 | MSDLETVAKFLAESVIASTAKTSERNLRQLETQDGFGLTLLHVIASTNLPLSTRLAGALFFKNFIKRKWVDENGNHLLPANNVELIKKEIVPLMISLPNNLQVQIGEAISSIADSDFPDRWPTLLSDLASRLSNDDMVTNKGVLTVAHSIFKRWRPLFRSDELFLEIKLVLDVFTAPFLNLLKTVDEQITANENNKASLNILFDVLLVLIKLYYDFNCQDIPEFFEDNIQVGMGIFHKYLSYSNPLLEDPDETEHASVLIKVKSSIQELVQLYTTRYEDVFGPMINEFIQITWNLLTSISNQPKYDILVSKSLSFLTAVTRIPKYFEIFNNESAMNNITEQIILPNVTLREEDVELFEDDPIEYIRRDLEGSDTDTRRRACTDFLKELKEKNEVLVTNIFLAHMKGFVDQYMSDPSKNWKFKDLYIYLFTALAINGNITNAGVSSTNNLLNVVDFFTKEIAPDLTSNNIPHIILRVDAIKYIYTFRNQLTKAQLIELMPILATFLQTDEYVVYTYAAITIEKILTIRESNTSPAFIFHKEDISNSTEILLKNLIALILKHGSSPEKLAENEFLMRSIFRVLQTSEDSIQPLFPQLLAQFIEIVTIMAKNPSNPRFTHYTFESIGAILNYTQRQNLPLLVDSMMPTFLTVFSEDIQEFIPYVFQIIAFVVEQSATIPESIKPLAQPLLAPNVWELKGNIPAVTRLLKSFIKTDSSIFPDLVPVLGIFQRLIASKAYEVHGFDLLEHIMLLIDMNRLRPYIKQIAVLLLQRLQNSKTERYVKKLTVFFGLISNKLGSDFLIHFIDEVQDGLFQQIWGNFIITTLPTIGNLLDRKIALIGVLNMVINGQFFQSKYPTLISSTMNSIIETASSQSIANLKNDYVDLDNLEEISTFGSHFSKLVSISEKPFDPLPEIDVNNGVRLYVAEALNKYNAISGNTFLNTILPQLTQENQVKLNQLLVGNRSHHHHHH | soluble
14 | MKEIELIATAAAGVESVVKHEVKKLGFKDITVDNGKIMFKGDISSIPRANLWLRSADRVLLKMGEFEALTFEELFDKTYALPWDQWITSDGKFTVLGKSVKSKLFSISDCQAIVKKAVVEKLKSKYHVEWFEESGPEYTIQVALHKDIATLTIDTSGTALHKRGYRAKNVEAPIKETLASAMILISYWNKRKPLWDCFCGSGTIPIEAALIGRNIAPGLNRTFASEEWPAIGKDIWKQERALALRAIDHDIKLKIYGSDINPDAIELAKENACLAGVDDCIEFFVSDFRNVNIKEDYGVIICNPPYGERIGEQQEVETINKDMGKTFSKYDTWSKYIITPFENFERLYGKKADKKRKFYNGNIKVDYYQYFGPKPTNT | soluble
15 | MRTLRIGIVGLGGIAQKAWLPVLTNTAGWTLQGAWSPSRDKALRICESWRIPYVDSLANLASSCDAVFVHSSTASHYAVVSELLNAGVHVCVDKPLAENLRDAERLVALAAQKKLTLMVGFNRRFAPLYRELKTRLGTAASLRMDKHRTDSVGPHDLRFTLLDDYLHVVDTALWLAGGEARLASGTLLTSESGEMCYAEHHFSADKLQITTSMHRRAGSQRESVQAVTDGGLYDVTDMREWREERGQGILIKPIPSWQTTLEQRGFVGCARHFIDCVQNQTVPETAGEQAILAQRVVEALWRDAISE | not soluble
16 | MYDTEIPYEGKISIYTYFCKECGYRKTEVYSDEKRDPKKITIRIENPDDLRIIVYRSRRADVYIPEMEASIDSAEYSNGEITTIEGIIYRIGEKLDLLAADDQNNKKIASLRKRIDGIINGKFESFTLIIMDESGKSVVHS | not soluble
17 | MNTNVTTNKSVQAAKNTGRVKPQKLADIILAQLEGMIIEGSLQPGEKLLPERELALQFEVSRPSLREAIQKLEAKGLVTRKQGGGTFVCNNLLSGFSDPLFELMSNNNESQFDLLEFRHGIEGMASYYAAMRGTPADFEQIQAKHNEIGNSQLEDDFRGEAEAVVEFHLAICAASHNAVILQLARSMSSLLADNIAQNLTVLAKRPDIFSKITDYRKRLLDAILSGQPQKAWGASHRHLAFIEEVLLKSTQENSRMERSMRRM | not soluble
18 | MAEKLGPEKRHAFVHNGQKVFEWDQTLEEVNMYIELPKGVPTKLFHCAIQATHVEVGIRGNPPYLNFYICGSYFLYELSIQFSEQFDEWTPSSEDGEMHITLQKREKGKTWSSPIQGQGSLDPYAADQEQKRLMLQRFQEENPGFDFSQAQFTGTCPDPRTFMGGIRSD | soluble
19 | MGSDKIHHHHHHMITFIGHVSKDVNVVDGKREIAYGGGVVMGAITSSLLGVKTKVITKCTREDVSKFSFLRDNGVEVVFLKSPRTTSIENRYGSDPDTRESFLISAADPFTESDLAFIEGEAVHINPLWYGEFPEDLIPVLRRKVMFLSADAQGFVRVPENEKLVYRDWEMKEKYLKYLDLFKVDSREAETLTGTNDLRESCRIIRSFGAKIILATHASGVIVFDGNFYEASFRSWSLEGRTGRGDTCTAAFLVGFVFKKMSIEKATKFAAAVTSVKMRHPGPLRREDLEAISGDQYF | soluble

From the DeepSol protein solubility set
